# According to patent US7666582B2, “IdeS, an IgG-degrading enzyme of Streptococcus pyogenes” (Hansa Medical Research AB, priority 2001, dated 2010):
# B1: IdeS: new extracellular cysteine protease produced by S. pyogenes, highly specific for IgG; SEQ ID NO: 1 (protein)
# chain: DSFSANQEIRYSEVTPYHVTSVWTKGVTPPANFTQGEDVFHAPYVANQGWYDITKTFNGKDDLLCGAATAGNMLHWWFDQNKDQIKRYLEEHPEKQKINFNGEQMFDVKEAIDTKNHQLDSKLFEYFKEKAFPYLSTKHLGVFPDHVIDMFINGYRLSLTNHGPTPVKEGSKDPRGGIFDAVFTRGDQSKLLTSRHDFKEKNLKEISDLIKKELTEGKALGLSHTYANVRINHVINLWGADFDSNGNLKAIYVTDSDSNASIGMKKYFVGVNSAGKVAISAKEIKEDNIGAQVLGLFTLSTGQDSWNQTN
# modifications: S. Pyogenes
# Legend:
# [1] = biological target: T1, fibrinogen (Homo sapiens, UniProt P02671+P02675+P02679); test: IdeS cleavage of other human proteins: fibrinogen; assay type: biochemical
# T1 sequence (P02671 20-629 limits assumed): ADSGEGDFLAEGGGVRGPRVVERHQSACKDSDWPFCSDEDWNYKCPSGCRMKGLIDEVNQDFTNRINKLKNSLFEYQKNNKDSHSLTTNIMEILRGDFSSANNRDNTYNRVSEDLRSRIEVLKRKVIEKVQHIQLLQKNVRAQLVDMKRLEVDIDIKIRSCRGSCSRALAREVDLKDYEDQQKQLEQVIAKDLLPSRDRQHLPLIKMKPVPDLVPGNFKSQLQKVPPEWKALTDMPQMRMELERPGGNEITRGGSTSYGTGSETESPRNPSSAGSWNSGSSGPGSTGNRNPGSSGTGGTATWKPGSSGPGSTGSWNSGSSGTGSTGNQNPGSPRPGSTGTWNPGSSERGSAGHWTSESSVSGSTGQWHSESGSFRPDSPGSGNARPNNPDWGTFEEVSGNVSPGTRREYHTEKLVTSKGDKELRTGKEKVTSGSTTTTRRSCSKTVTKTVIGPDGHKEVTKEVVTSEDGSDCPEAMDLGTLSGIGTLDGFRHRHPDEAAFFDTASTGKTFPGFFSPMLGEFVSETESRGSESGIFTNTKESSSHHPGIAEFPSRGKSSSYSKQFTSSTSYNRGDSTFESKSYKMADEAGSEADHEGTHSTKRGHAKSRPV
# T1 sequence (P02675 31-491): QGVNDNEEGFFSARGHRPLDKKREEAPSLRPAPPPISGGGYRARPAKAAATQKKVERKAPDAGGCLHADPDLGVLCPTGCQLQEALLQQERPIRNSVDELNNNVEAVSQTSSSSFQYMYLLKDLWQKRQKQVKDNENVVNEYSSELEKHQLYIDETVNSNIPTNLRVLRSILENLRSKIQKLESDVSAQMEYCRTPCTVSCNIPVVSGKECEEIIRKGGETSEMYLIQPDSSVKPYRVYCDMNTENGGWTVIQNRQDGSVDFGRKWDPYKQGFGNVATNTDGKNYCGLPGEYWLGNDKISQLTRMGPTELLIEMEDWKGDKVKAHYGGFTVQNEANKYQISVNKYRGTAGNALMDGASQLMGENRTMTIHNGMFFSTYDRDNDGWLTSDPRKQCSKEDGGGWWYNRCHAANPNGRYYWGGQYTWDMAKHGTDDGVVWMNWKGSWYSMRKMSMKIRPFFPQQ
# T1 sequence (P02679 27-453): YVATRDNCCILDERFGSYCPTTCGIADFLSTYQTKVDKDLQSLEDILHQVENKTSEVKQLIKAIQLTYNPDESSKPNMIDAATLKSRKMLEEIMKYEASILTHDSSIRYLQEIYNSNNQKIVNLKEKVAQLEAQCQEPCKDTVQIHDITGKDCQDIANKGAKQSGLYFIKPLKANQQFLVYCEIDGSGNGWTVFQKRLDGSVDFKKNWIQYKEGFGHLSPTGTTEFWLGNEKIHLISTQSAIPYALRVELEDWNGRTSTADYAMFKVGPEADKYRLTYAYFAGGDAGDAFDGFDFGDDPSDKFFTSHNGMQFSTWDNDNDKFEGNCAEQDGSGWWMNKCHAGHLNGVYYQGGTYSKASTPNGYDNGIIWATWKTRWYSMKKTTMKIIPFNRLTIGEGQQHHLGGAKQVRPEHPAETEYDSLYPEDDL
# [2] = biological target: transferrin (Homo sapiens, UniProt P02787); test: IdeS cleavage of other human proteins: transferrin; assay type: biochemical
# [3] = biological target: T2, antimicrobial peptide LL-37 (Homo sapiens, UniProt P49913); test: IdeS activity towards peptides: LL-37; assay type: biochemical
# T2 construct: antimicrobial peptide LL-37
# T2 sequence (P49913 134-170 limits assumed): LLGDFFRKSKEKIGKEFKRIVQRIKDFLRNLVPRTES
# [4] = system: murine IgG; test: IdeS species restrictions: murine IgG; assay type: biochemical
# [5] = biological target: T3, cystatin C (Homo sapiens, UniProt P01034); test: IdeS cleavage of other human proteins: cystatin C; assay type: biochemical
# T3 sequence (P01034 27-146): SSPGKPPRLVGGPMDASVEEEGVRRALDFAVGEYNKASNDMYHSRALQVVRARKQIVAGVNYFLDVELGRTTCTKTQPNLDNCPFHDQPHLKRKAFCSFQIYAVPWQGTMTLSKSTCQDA
# [6] = biological target: T4, cystatin C (Rattus norvegicus, UniProt P14841); test: IdeS incubation with rat cystatin C; assay type: biochemical
# T4 sequence (P14841 21-140): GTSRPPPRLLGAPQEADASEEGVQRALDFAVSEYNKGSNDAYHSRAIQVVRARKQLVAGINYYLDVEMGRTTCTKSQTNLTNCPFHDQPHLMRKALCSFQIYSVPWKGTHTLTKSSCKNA
# [7] = system: human IgM; test: IdeS cleavage assay of Ig classes: IgM; assay type: biochemical; details: purified IdeS, 2 h at 37° C.
# Procedure: For standard IdeS activity assays, bacteria cultures were grown to OD620=0.4. Bacteria were pelleted by centrifugation and supernatants were sterile-filtered through a 0.22 μm membrane (Millipore) prior to use. For activity assays, […] of supernatant were mixed with 5 μl of IgG (10 mg/ml, Sigma) and the volume was adjusted with PBS to 100 μl. For screening of IdeS activity in different S. progenes strains, E64 was added to a final concentration of 40 μM. The mixtures were incubated at 37° C. for 30 min and samples were analyzed by 12% SDS-PAGE. For cleavage assays of different classes of Ig, purified IdeS (0.3 μg/ml) was incubated with 3 μg Ig for 2 h at 37° C., and analyzed by 12% SDS-PAGE analysis.
# [8] = IdeS activity towards peptides: Z-LVG-CHN2; assay type: biochemical; details: excess IdeS
# [9] = system: IgG bound to AP1 bacteria; test: IdeS cleavage of IgG bound to S. pyogenes bacterial surface; assay type: cell-based, human; details: AP1 bacteria after absorption of non-immune or immune plasma
# [10] = biological target: aprotinin (Bos taurus, UniProt P00974); test: IdeS cleavage of other human proteins: aprotinin; assay type: biochemical
# [11] = system: IgG2; test: IdeS activity against IgG2; assay type: biochemical, human
# Sequence of transferrin (P02787 20-698): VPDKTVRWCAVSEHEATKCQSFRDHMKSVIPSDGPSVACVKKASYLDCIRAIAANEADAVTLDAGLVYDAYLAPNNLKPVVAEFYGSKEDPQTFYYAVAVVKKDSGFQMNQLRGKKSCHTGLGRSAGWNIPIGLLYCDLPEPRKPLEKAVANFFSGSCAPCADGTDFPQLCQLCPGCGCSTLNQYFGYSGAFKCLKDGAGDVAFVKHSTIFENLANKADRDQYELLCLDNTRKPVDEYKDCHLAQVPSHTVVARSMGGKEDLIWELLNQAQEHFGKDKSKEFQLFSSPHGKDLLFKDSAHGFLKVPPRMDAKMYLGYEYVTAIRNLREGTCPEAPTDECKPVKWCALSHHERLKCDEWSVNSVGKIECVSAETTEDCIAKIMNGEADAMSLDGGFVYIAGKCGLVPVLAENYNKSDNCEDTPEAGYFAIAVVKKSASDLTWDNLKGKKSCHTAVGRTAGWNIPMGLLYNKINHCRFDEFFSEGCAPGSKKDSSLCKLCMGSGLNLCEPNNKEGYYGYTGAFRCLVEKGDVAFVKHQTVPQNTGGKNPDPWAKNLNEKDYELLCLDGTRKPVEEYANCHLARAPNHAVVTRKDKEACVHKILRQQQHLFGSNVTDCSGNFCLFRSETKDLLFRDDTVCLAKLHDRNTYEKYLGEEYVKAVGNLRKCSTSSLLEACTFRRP
molecule,measurement,setting,value
B1,"cleavage products, fibrinogen",[1],No cleavage products could be detected
same,"cleavage products, transferrin",[2],No cleavage products could be detected
same,degradation of LL-37,[3],did not reveal any degradation
same,cleavage of murine IgG,[4],not murine IgG
same,"cleavage products, cystatin C",[5],No cleavage products could be detected
same,"cleavage products, cystatin C from rat",[6],No cleavage products could be observed
same,degradation of human IgM,[7],only IgG was degraded
same,cleavage of Z-LVG-CHN2,[8],"Neither was the synthetic peptide Z-LVG-CHN2, which inhibits IdeS activity, cleaved"
same,cleavage of IgG bound to the bacterial surface (31 kDa band),[9],in both cases IgG was cleaved
same,"cleavage products, aprotinin",[10],No cleavage products could be detected
same,digestion of IgG2 compared to the other subclasses,[11],less efficiently digested
